# Test results taken from IntAct's records for PubMed 16304051.
# B1: Multiple coagulation factor deficiency protein 2 (Homo sapiens), Q8NI22 (parent)
# chain: MTMRSLLRTPFLCGLLWAFCAPGARAEEPAASFSQPGSMGLDKNTVHDQEHIMEHLEGVINKPEAEMSPQELQLHYFKMHDYDGNNLLDGLELSTAITHVHKEEGSEQAPLMSEDELINIIDGVLRDDDKNNDGYIDYAEFAKSLQ
# partner: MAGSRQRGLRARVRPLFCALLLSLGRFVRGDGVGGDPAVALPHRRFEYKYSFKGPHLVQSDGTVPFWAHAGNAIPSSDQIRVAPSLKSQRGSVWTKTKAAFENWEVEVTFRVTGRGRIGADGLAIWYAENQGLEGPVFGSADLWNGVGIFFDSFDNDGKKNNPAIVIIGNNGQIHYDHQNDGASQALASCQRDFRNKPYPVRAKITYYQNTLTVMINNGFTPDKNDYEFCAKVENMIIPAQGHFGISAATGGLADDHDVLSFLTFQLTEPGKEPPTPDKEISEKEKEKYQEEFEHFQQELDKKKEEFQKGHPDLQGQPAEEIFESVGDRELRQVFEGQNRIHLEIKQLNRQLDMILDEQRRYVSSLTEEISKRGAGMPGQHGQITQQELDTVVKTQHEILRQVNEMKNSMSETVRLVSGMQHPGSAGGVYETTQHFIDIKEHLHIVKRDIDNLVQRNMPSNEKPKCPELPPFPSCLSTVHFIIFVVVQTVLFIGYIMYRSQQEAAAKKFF
# Variants of: B1
# Conditions: with lman1_human LMAN1, P49257
row,effect of a mutation on the interaction,Variant
1,with no effect,MTMRSLLRTPFLCGLLWAFCAPGARAEEPAASFSQPGSMGLDKNTVHDQEHIMEHLEGVINKPEAEMSPQELQLHYFKMHDYDGNNLLDGLELSTAITHVHKEEGSEQAPLMSEDELINIIDGVLRDDDKNNDGYTDYAEFAKSLQ
